Data published in publication PMC3785238 (Cell, 2013).
Non-standard residues stand in square brackets, D forms with d. No end group written: not given here. pT = C[C@@H](OP(=O)(O)O)[C@H](N)C(=O)O; pS = N[C@@H](COP(=O)(O)O)C(=O)O

T1: Homer1c, full-length, recombinant (UniProt Q9Z214 1-366)
T1 sequence (looked up): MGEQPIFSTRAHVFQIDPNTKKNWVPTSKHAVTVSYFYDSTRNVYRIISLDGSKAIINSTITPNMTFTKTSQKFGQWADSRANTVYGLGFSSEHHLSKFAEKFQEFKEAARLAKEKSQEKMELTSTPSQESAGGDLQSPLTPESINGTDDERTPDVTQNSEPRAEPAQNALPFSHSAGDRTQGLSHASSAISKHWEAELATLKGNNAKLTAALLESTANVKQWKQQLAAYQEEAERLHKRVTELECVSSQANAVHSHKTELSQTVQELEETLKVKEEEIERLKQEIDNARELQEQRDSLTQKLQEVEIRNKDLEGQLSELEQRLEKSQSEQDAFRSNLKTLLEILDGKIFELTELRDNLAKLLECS

B1: mGluR5 peptide spanning the Homer/Pin1 binding site, bacterially expressed, phosphorylated at T1123 and S1126 (peptide)
chain: KELVAL[pT]PP[pS]PFRD

Assays:
[1] = biological target: T1, Homer1c, full-length, recombinant; experiment: ITC
[2] = biological target: Homer1a, full length, recombinant; experiment: ITC + NMR titration
[3] = biological target: Homer1a, full length, recombinant; experiment: ITC
[4] = biological target: B1

| Binder | Kd [1] [nM] | Kd, calc cis [2] [nM] | Kd, calc trans [2] [nM] | Kd [3] [nM] | Kd [4] [nM] |
| --- | --- | --- | --- | --- | --- |
| KELVALTPP[pS]PFRD [mGluR5 peptide spanning the Homer/Pin1 binding site, bacterially expressed, phosphorylated at S1126] | 1910 ± 190 | 670 | 2190 | 1560 ± 160 | – |
| B1 | – | 160 | 760 | 470 ± 100 | – |
| EKLPPGWEKRMSRSSGRVYYFNHITNASQWERPSG (domain or fragment, UniProt Q13526 5-39, looked up) [WW domain of Pin1] | – | – | – | – | 10700 ± 200 |
